Assay results published in patent publication US20200407436A1 (published 2020).

Tests used:
[1] = molecular target: T1, mature human TGF-beta 2 (human, UniProt P61812 303-414); test: SPR Biacore T200, human TGF-beta amine-coupled (~20 RU), E. coli derived Fab as analyte; heterogeneous fit, component 1 (kd1; believed occluded)
T1 construct: also called TGFb2; TGFB2
T1 sequence: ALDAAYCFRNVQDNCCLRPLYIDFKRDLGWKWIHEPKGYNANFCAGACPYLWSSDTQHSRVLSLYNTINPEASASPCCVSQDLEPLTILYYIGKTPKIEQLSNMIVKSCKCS
Description: (§1) Human TGF-β isoforms 1, 2, and 3 (Peprotech) were immobilised on CMS Series S chip via amine coupling chemistry on Flowcell 2, 3 and 4 (respectively) to a level of approximately 20 RU. HBS-EP buffer (10 mM HEPES pH 7.4, 0.15 M NaCl, 3 mM EDTA, 0.05% Surfactant P20, GE Healthcare) was used as the running buffer. […] The surface was regenerated by 2×10 μL injection of 10 mM HCl at a flowrate of 10 uL/min.
(§2) Background subtraction binding curves were analysed using the T200 evaluation software (version 1.0; GE Healthcare) following standard procedures. Kinetic parameters were determined using heterogeneous fitting algorithm with RI=0), as described in Example 3, and the values are provided in Table 4.

[2] = molecular target: T2, mature human TGF-beta 3 (human, UniProt P10600 301-412); test: as above
T2 construct: also called TGFb3; TGFB3
T2 sequence: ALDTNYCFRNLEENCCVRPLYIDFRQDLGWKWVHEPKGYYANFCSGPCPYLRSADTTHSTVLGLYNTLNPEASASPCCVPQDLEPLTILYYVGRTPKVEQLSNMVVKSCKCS
Description: as §1, §2

[3] = molecular target: T3, mature human TGF-beta 1 (human, UniProt P01137 279-390); test: as above
T3 construct: Bought recombinant protein (Peprotech); also called TGFb1; TGFB1
Description: as §1, §2

[4] = molecular target: T1, mature human TGF-beta 2; test: cell-based or functional assay
[5] = molecular target: T2, mature human TGF-beta 3; test: cell-based or functional assay
[6] = molecular target: T3, mature human TGF-beta 1; test: cell-based or functional assay
[7] = molecular target: T1, mature human TGF-beta 2; test: SPR Biacore T200, human TGF-beta amine-coupled (~20 RU), E. coli derived Fab as analyte; heterogeneous fit, component 2 (ka2; believed unoccluded)
Description: as §1, §2

[8] = molecular target: T2, mature human TGF-beta 3; test: as above
Description: as §1, §2

[9] = molecular target: T3, mature human TGF-beta 1; test: as above
Description: as §1, §2

[10] = molecular target: T2, mature human TGF-beta 3; test: SPR Biacore T200, human TGF-beta amine-coupled (~20 RU), E. coli derived Fab as analyte; heterogeneous fit, component 2 (KD2; believed unoccluded)
Description: as §1, §2

[11] = molecular target: T3, mature human TGF-beta 1; test: as above
Description: as §1, §2

T3 sequence (P01137 279-390 limits assumed): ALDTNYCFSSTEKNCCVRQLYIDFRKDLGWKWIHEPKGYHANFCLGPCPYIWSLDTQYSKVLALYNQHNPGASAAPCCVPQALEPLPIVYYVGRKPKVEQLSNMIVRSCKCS

B1: humanised antibody 4856 Fab graft gL3gH13 (Fab, V domains shown)
VH: EVQLVESGGGLVKPGGSLRLSCAASGFSLSSYDMSWVRQAPGKGLEWIGIIYGGSGSTWYASWAKGRFTISRDSAKNSVYLQMNSLRAEDTAVYYCARGRDAGAGGSRNGYSLWGQGTLVTVSS
VL: AYDMTQSPSTLSASVGDRVTITCQASESIYSGLAWYQQKPGKAPKLLIYAASDLASGVPSRFSGSGSGTEYTLTISSLQPDDFATYYCQQTWTDGGIDNPFGGGTKVEIKR
notes: Human gamma-1 CH1 (G1m17) and human C-kappa (K1m3); also called 4856gL3gH13
koff [1]: 0.000211 s⁻¹
koff [2]: 0.00146 s⁻¹
koff [3]: 0.000709 s⁻¹
Geometric mean IC50, HEK-Blue TGF-beta reporter gene assay [4]: 0.01 nM
Geometric mean IC50, HEK-Blue TGF-beta reporter gene assay [5]: 0.475 nM
Geometric mean IC50, HEK-Blue TGF-beta reporter gene assay [6]: 0.074 nM
kon [7]: 904000 M⁻¹ s⁻¹
kon [8]: 2e+06 M⁻¹ s⁻¹
kon [9]: 704000 M⁻¹ s⁻¹
Kd [10]: 1.72 nM
Kd [11]: 0.0808 nM
